B1: P116 ectodomain (residues 30-957) from Mycoplasma pneumoniae (domain or fragment, UniProt P75556 30-957, looked up)
chain: NKTHQVEHESEQSDFQDIRFGLNSVKLPKAQPAAATRITVENGTDKLVNYKSSPQQLFLAKNALKDKLQGEFDKFLSDAKAFPALTADLQEWVDQQLFNPNQSFFDLSAPRSNFTLSSDKKASLDFIFRFTNFTESVQLLKLPEGVSVVVDSKQSFDYYVNASAQKLLVLPLSLPDYTLGLNYMFDHITLNGKVVNKFSFNPFKTNLNLAFSNVYNGVDVFEAQKNLVGKGKYLNTHVKAEDVKKDVNANIKNQFDIAKIIAELMGKALKEFGNQQEGQPLSFLKVMDKVKEDFEKLFNLVRPGLGKFVKDLIQSSSQAENKITVYKLIFDNKKTILNLLKELSIPELNSSLGLVDVLFDGITDSDGLYERLQSFKDLIVPAVKTNEKTAALSPLIEELLTQKDTYVFDLIQKHKGILTNLLKNFLADFQKSTPFMADQVAIFTELFDNEGAFDLFGEADFVDKIAELFLTKRTVKNGEKIETKDSLLVTSLKSLLGEKVAALGDLLDSYIFKNELLNRSVEVAKAEAKDTKGATDYKKEQAKALKKLFKHIGENTLSKTNLDKITLKEVKNTENVELEETETTLKVKKLDVEYKVELGNFEIKNGLIKAMLEFLPDTKDLETTLDKLLFKGESYKAMKDKYIKEGFPGYGWAKGVVPGAFESIENTFKSAIDKTKSIRDLFGDMLFGNDLSSVKETDSFITLGGSFDIKYGGENLNVLPAYYSLINSEIGYQIIGVDTTIDATKVKVELKNKEYKGKSPAINGQVKLSQSFFNVWTNMFDSITKQIFQKKYEFKDNIQVFARNEDNTSRLELDISDPEQRVIPFAFVDGFGIQLKAVDKNITKEAGNTEPKSPVIQLYEALNKEKDQKQQSKQSPKQLDTKTQLGYLLKLGDNWSKDDYKSLIDDTIINNNYLEASFNSKITVDRLG

What was measured:
[1] = target: P116 variant Trp681Ala (Mycoplasma pneumoniae) (UniProt P75556); assay: SEC-MALS
[2] = target: the molecule itself; assay: cryo-EM structure

Molecule | ratio of dimers to monomers (dimers per monomer) [1] | stoichiometry N [2]
P116 variant Trp681Ala (from UniProt P75556 30-957) (domain or fragment) | 0.25 | –
B1 | – | 2
